Experimental data: PMC10612264, “A novel transcriptional repressor specifically regulates xylanase gene 1 in Trichoderma reesei”

Legend:
[1] = target: T1, XTR1 DBD (Trichoderma reesei QM9414) (UniProt G0RH11); test: EMSA; settings: EMSA: 10 mM Tris pH 7.5, 50 mM KCl, 1 mM DTT, 150 ng DNA, 20 C 30 min, 6% native PAGE at 4 C in 0.5x TBE, EtBr; footprinting: 180 ng DNA, 25 C 30 min
T1 sequence: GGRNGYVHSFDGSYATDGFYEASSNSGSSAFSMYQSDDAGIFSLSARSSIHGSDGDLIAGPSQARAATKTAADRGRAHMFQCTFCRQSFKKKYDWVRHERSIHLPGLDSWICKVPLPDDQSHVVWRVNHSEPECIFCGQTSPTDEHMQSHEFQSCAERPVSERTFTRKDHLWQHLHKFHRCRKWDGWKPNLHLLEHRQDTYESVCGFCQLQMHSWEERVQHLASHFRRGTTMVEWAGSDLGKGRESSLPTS

[2] = target: T2, XYR1 DBD (Trichoderma reesei) (UniProt G0RLE8); test: EMSA; settings: EMSA: 10 mM Tris pH 7.5, 50 mM KCl, 1 mM DTT, 150 ng DNA, 20 C 30 min, 6% native PAGE at 4 C in 0.5x TBE, EtBr; footprinting: 180 ng DNA, 25 C 30 min
T2 sequence: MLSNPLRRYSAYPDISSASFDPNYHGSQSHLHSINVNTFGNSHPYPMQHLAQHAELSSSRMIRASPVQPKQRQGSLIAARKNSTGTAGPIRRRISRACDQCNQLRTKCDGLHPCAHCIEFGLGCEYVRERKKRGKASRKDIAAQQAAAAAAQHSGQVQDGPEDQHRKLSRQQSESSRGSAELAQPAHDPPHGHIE

XTR1 DBD [3] = target: T3, XTR1 DBD (Trichoderma reesei QM9414, UniProt G0RH11 285-535); test: EMSA; EMSA: 10 mM Tris pH 7.5, 50 mM KCl, 1 mM DTT, 150 ng DNA, 20 C 30 min, 6% native PAGE at 4 C in 0.5x TBE, EtBr; footprinting: 180 ng DNA, 25 C 30 min; settings: protein: recombinant; tags: His tag (pET22b NdeI/XhoI, Ni-NTA); label: none (EtBr stain)
T3 sequence: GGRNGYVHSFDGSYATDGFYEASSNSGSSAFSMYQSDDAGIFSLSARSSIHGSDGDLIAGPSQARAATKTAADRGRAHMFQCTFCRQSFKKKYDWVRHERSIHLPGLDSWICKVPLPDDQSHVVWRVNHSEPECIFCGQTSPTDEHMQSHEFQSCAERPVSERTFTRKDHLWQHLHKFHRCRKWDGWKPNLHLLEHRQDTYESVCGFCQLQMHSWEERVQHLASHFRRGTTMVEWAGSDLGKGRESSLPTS

XTR1 DBD [4] = target: T3, XTR1 DBD; test: EMSA; binding increased vs wild type; EMSA: 10 mM Tris pH 7.5, 50 mM KCl, 1 mM DTT, 150 ng DNA, 20 C 30 min, 6% native PAGE at 4 C in 0.5x TBE, EtBr; footprinting: 180 ng DNA, 25 C 30 min; settings: protein: recombinant; tags: His tag (pET22b NdeI/XhoI, Ni-NTA); label: none (EtBr stain)

Question: “AACTAGGACCGGCTTGTGTCGATATTGCGGGTGGCGTTCAATCTATTCCGGCACTCCTATGCCGTTTGATCCGATACCTGGAGGGCGTGCTTTAGGCAAAATGCC (double strand) [Pxyn1 (-321 to -217)]” was tested. Which binding [1] did it give?
Answer: The binding was “binds”.

Question: And the binding [2]?
Answer: Its binding is “binds”.

Question: How did the binding [1] turn out when “AACTAGGACCGGCTTGTGTCGATATTGCGGGTGGCGTTCAATCTATTCCGGCACTCCTATGCCGTTTGATCCGATACCTGGAGGGCGTGCTTTAGGCAAAATGCCAAGCTTCGAGGATACTGTACGAGCCGCTTTCAACCTCACTTGATGATGTCTGAGTTTCATCAAGAGAATTGAAGTCAAAGCTCAAATCATGATGTGAAGAGGTTTTGAATGTGGAAGAATTCTGCATA (double strand) [Pxyn1 (-321 to -91)]” was run?
Answer: The binding was “binds”.

Question: For “AAGCTTCGAGGATACTGTACGAGCCGCTTTCAACCTCACTTGATGATGTCTGAGTTTCATCAAGAGAATTGAAGTCAAAGCTCAAATCATGATGTGAAGAGGTTTTGAATGTGGAAGAATTCTGCATA (double strand) [Pxyn1 (-217 to -91)]”, which binding [1] is on record?
Answer: The binding was “no binding”.

B1: Pxyn1 (-321 to -217) GG2-3 to AA (dsDNA)
DNA 1: AACTAGGACCGGCTTGTGTCGATATTGCGGGTGGCGTTCAATCTATTCCGGCACTCCTATGCCGTTTGATCCGATACCTAAAGGGCGTGCTTTAGGCAAAATGCC
DNA 2: GGCATTTTGCCTAAAGCACGCCCTTTAGGTATCGGATCAAACGGCATAGGAGTGCCGGAATAGATTGAACGCCACCCGCAATATCGACACAAGCCGGTCCTAGTT
Question: Does B1 bind (XTR1 DBD [3])?
Answer: Result: binds

B2: Pxyn1 (-321 to -217) 3' TTT to AAA (dsDNA)
DNA 1: AACTAGGACCGGCTTGTGTCGATATTGCGGGTGGCGTTCAATCTATTCCGGCACTCCTATGCCGTTTGATCCGATACCTGGAGGGCGTGCGGGAGGCAAAATGCC
DNA 2: GGCATTTTGCCTCCCGCACGCCCTCCAGGTATCGGATCAAACGGCATAGGAGTGCCGGAATAGATTGAACGCCACCCGCAATATCGACACAAGCCGGTCCTAGTT
Question: Does B2 bind (XTR1 DBD [4])?
Answer: Result: binds

B3: Pxyn1 (-321 to -217) CGTGC8-12 to TTGTT (dsDNA)
DNA 1: AACTAGGACCGGCTTGTGTCGATATTGCGGGTGGCGTTCAATCTATTCCGGCACTCCTATGCCGTTTGATCCGATACCTGGAGGGTTGTTTTTAGGCAAAATGCC
DNA 2: GGCATTTTGCCTAAAAACAACCCTCCAGGTATCGGATCAAACGGCATAGGAGTGCCGGAATAGATTGAACGCCACCCGCAATATCGACACAAGCCGGTCCTAGTT
Question: Does B3 bind (XTR1 DBD [3])?
Answer: Result: no binding

B4: Pxyn1 (-321 to -217) GGG5-7 to AAA (dsDNA)
DNA 1: AACTAGGACCGGCTTGTGTCGATATTGCGGGTGGCGTTCAATCTATTCCGGCACTCCTATGCCGTTTGATCCGATACCTGGAAAACGTGCTTTAGGCAAAATGCC
DNA 2: GGCATTTTGCCTAAAGCACGTTTTCCAGGTATCGGATCAAACGGCATAGGAGTGCCGGAATAGATTGAACGCCACCCGCAATATCGACACAAGCCGGTCCTAGTT
Question: Does B4 bind (XTR1 DBD [3])?
Answer: Result: binds
